Source: patent US20230183318A1 (KOREA UNIVERSITY RESEARCH AND BUSINESS FOUNDATION, published 2023)

Key:
[1] = molecular target: T1, dimeric human PD-L1 (PD-L1-Fc), Alexa-488 labelled (human, UniProt Q9NZQ7 19-238, Alexa-488 fluorescent label (sites not given)); test: flow cytometry of E. coli spheroplasts displaying the variant, 50 nM dimeric PD-L1-Fc-Alexa488
T1 construct: also called dimeric PD-L1-Fc-Alexa488 probe; dimeric PD-L1-Alexa488 probe; not shown: Fc domain of antibody IgG at the C-terminus; GS linker between PD-L1 and Fc
T1 sequence (Q9NZQ7 19-238): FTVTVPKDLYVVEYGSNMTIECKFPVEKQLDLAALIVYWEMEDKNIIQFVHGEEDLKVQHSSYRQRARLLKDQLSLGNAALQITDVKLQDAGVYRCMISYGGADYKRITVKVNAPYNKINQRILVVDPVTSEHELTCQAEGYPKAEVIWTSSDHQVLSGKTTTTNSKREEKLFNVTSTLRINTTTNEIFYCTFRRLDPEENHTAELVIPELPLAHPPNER

[2] = molecular target: T1, dimeric human PD-L1 (PD-L1-Fc), …; test: flow cytometry of E. coli spheroplasts displaying single clones, fluorescent PD-L1 probe
Description: Single colonies at the final round were incubated like Examples above to overexpress the protein and recover E. coli, respectively, and the peptidoglycan layer was removed and the spheroplasts were fluorescent-labeled, and then the binding ability to PD-L1 was analyzed by measuring the fluorescence signal values using FACSCalibur equipment.

Binder	binding result [1]	binding result [2]
aglycosylated PD-1 variant Q-IITV (F13I, N25Q, N34Q, M46I, N50Q, C69T, N92Q, G100V), displayed on E. coli spheroplasts (receptor, pMopac12-N1pA-PD1_Q-IITV-FLAG; not shown: NlpA leader/anchor of the pMopac12-NlpA-FLAG vector; FLAG tag) LDSPDRPWNPPTISPALLVVTEGDQATFTCSFSQTSESFVLNWYRISPSQQTDKLAAFPEDRSQPGQDTRFRVTQLPNGRDFHMSVVRARRQDSGTYLCVAISLAPKAQIKESLRAELRVTERRAEVPTAHPSPSPRPAGQFQ	binds	
aglycosylated PD-1 variant Q33, displayed on E. coli spheroplasts (receptor, Single clone of the final sorting round; not shown: NlpA leader/anchor of the pMopac12-NlpA-FLAG vector; FLAG tag) LDSPDRPWNPPTISPALLVVTEGDQATFTCSFSRTSESFVLNWYRISPSQQTDKLAAFPEDRSQPGQDTRFRVTQLPNGRDFHMSVVGAQRQDSGTYLCVAISLAPKVQIKESLRAELRVTERRAEVPTAHPSPSPRPAGQFQ		binds
PD-1 variant N-IITV (F13I, M46I, C69T, G100V), displayed on E. coli spheroplasts (receptor, also called N-IIITV; PD1_N-IITV; not shown: NlpA leader/anchor of the pMopac12-NlpA-FLAG vector; FLAG tag) LDSPDRPWNPPTISPALLVVTEGDNATFTCSFSNTSESFVLNWYRISPSNQTDKLAAFPEDRSQPGQDTRFRVTQLPNGRDFHMSVVRARRNDSGTYLCVAISLAPKAQIKESLRAELRVTERRAEVPTAHPSPSPRPAGQFQ	binds	

Other lines, results leading:

binding result [1]	binding result [2]	Binder
	binds	aglycosylated PD-1 variant Q18, displayed on E. coli spheroplasts (receptor, Single clone of the final sorting round; not shown: NlpA leader/anchor of the pMopac12-NlpA-FLAG vector; FLAG tag) LDSPDRPWNPPTISPALLVVTEGDQATFTCGLPQTSESFVLNWYRIGPSQQMDKLAAFPEDRSQPGQDTRFRVTQLPNGRDFHMSVVRARRQDSGTYLCVAISLAPKVQIKESLRAELRVTERRAEVRTAHPSPSPRSAGQFQ
	binds	aglycosylated PD-1 variant Q10, displayed on E. coli spheroplasts (receptor, Single clone of the final sorting round; not shown: NlpA leader/anchor of the pMopac12-NlpA-FLAG vector; FLAG tag) LDSPDRPWNPPTISPALLVVTEGDQATFTCSLSQTSESFVLNWYRISPSQQMDKLAAFPEDRSQPGQDTRFRVTQLPNGRDFHMSVDRARRQDSGSYLCVAISLAPKVQIKESLRAELRVTERRAEVPTAHPSPSPRPAGQFQ
	binds	aglycosylated PD-1 variant Q12, displayed on E. coli spheroplasts (receptor, Single clone of the final sorting round; not shown: NlpA leader/anchor of the pMopac12-NlpA-FLAG vector; FLAG tag) LDSPDRPLDPPTISPALLVVTEGDQATFTCSFSQTSKSFVLNWYRISPSQQTDKLAAFPEDRSQPGQDTRFRVTQLPNGRDFHMSVVRARRQDSGTYLCVAISLAPKVQIKESLRAELRVTERRAEVPTAHPSPSPRPACQFQ
